This passage reports Kd results from PMC8809517, “Cofactor-independent RNA editing by a synthetic S-type PPR protein”.

What is called Kd is the constant that tells how readily two partners part at equilibrium. Higher therefore signals weaker binding.

Common to all, as to test: high-throughput RNA pulldown from lysate on Ni-NTA beads; HRP: 50 mM Tris pH 8, 150 mM NaCl, 1 mM beta-mercaptoethanol, 50 ug/ml BSA, 3 ug/ml yeast RNA, 0.5% heparin; ITC and FP: Tris pH 8, 200 mM KCl, 5% glycerol; MST: 50 mM Tris pH 8, 200 mM NaCl, 1 mM DTT, BSA, heparin, 0.05% Tween 20
Conditions in all cases: tags: N-terminal His-eGFP

Series [1] has as its target T1, GFP-9S library array, motif 4 ND N98I;D124C (synthetic construct, N98I;D124C).
T1 chain: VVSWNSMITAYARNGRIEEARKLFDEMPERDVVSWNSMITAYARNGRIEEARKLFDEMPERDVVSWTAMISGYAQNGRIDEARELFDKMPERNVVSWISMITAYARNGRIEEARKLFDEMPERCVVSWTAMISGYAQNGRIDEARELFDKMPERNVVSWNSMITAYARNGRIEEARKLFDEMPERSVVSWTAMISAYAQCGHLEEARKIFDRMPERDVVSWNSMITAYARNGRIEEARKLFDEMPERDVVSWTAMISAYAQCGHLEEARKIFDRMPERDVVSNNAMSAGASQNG

Series [2] deals with T2, GFP-9S library array, motif 4 ND N98T;D124P (synthetic construct, N98T;D124P).
T2 chain: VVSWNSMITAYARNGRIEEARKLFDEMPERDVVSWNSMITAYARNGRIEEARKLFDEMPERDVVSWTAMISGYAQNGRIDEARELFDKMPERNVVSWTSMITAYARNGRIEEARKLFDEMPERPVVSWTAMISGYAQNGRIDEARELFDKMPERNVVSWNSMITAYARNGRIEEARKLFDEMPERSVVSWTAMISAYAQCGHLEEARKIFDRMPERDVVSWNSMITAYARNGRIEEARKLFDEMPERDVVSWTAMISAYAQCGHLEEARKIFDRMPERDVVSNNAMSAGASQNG

Series [3] deals with T3, GFP-9S library array, motif 4 ND N98A;D124Q (synthetic construct, N98A;D124Q).
T3 chain: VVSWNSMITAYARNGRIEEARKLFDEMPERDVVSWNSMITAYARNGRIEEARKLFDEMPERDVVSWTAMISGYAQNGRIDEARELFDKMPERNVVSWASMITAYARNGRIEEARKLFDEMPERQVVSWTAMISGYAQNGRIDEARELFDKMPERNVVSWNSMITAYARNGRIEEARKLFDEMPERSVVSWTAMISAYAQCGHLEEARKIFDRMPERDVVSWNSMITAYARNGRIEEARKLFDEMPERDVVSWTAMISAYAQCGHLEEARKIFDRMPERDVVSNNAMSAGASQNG

Series [4] addresses T4, GFP-9S library array, motif 4 ND N98L;D124S (synthetic construct, N98L;D124S).
T4 chain: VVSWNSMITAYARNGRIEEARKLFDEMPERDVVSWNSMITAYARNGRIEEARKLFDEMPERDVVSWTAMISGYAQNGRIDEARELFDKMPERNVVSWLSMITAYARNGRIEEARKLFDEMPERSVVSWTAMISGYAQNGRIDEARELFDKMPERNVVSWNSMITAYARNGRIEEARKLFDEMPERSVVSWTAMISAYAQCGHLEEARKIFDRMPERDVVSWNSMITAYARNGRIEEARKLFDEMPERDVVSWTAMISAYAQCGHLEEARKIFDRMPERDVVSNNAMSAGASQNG

Series [5] deals with T5, GFP-9S library array, motif 4 ND N98F;D124R (synthetic construct, N98F;D124R).
T5 chain: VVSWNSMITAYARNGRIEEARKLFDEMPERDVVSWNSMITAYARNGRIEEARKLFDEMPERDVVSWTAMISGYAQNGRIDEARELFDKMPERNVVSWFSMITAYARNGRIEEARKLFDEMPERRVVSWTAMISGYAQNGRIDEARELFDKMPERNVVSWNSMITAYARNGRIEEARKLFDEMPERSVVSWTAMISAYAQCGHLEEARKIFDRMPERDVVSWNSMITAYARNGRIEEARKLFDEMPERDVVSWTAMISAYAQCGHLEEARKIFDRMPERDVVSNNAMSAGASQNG

In the case of AUUAGACGUGA (ssRNA) [Cy5-rpoA-G], the Kd was determined as 90.6 nM in series [1] (label: 5' Cy5); 90.3 nM in series [2] (label: 5' Cy5); 174 nM in series [3] (label: 5' Cy5); 111 nM in series [4] (label: 5' Cy5); 107 nM in series [5] (label: 5' Cy5).

For AUUAUACGUGA (ssRNA) [IR-rpoA-U], the Kd in series [1] (label: 5' IRDye 800CW) was determined as 32.9 nM; in series [2] (label: 5' IRDye 800CW), 113 nM; in series [3] (label: 5' IRDye 800CW), 522 nM; in series [4] (label: 5' IRDye 800CW), 37.2 nM; in series [5] (label: 5' IRDye 800CW), 176 nM.

For AUUAAACGUGA (ssRNA) [IR-rpoA-A], the dissociation constant (Kd) in series [1] (label: 5' IRDye 800CW) was 42.5 nM; in series [2] (label: 5' IRDye 800CW), 107 nM; in series [3] (label: 5' IRDye 800CW), 306 nM; in series [4] (label: 5' IRDye 800CW), 120 nM; in series [5] (label: 5' IRDye 800CW), 85.1 nM.

Consider AUUACACGUGA (ssRNA) [Cy5-rpoA], for which the Kd in series [1] (label: 5' Cy5) came out at 182 nM; in series [2] (label: 5' Cy5), 92.4 nM; in series [3] (label: 5' Cy5) it was 249 nM; in series [4] (label: 5' Cy5), 139 nM; in series [5] (label: 5' Cy5), 117 nM.
